From article PMC9891255 come the findings set out here.

In data set [1] the target is T1, UPF2S (Homo sapiens, UniProt Q9HAU5 761-1227). As to the kind of experiment: fluorescence anisotropy. A general note: In fluorescence polarisation assays a small probe gives low polarisation when free and higher when bound to something large.
A further data set has as its target UPF2-U1BD (Homo sapiens, UniProt Q9HAU5 1105-1227). As to the kind of experiment: fluorescence anisotropy.
The target of data set [2] is T1, UPF2S. As to the kind of experiment: analytical SEC.

T1 sequence (Q9HAU5 761-1227): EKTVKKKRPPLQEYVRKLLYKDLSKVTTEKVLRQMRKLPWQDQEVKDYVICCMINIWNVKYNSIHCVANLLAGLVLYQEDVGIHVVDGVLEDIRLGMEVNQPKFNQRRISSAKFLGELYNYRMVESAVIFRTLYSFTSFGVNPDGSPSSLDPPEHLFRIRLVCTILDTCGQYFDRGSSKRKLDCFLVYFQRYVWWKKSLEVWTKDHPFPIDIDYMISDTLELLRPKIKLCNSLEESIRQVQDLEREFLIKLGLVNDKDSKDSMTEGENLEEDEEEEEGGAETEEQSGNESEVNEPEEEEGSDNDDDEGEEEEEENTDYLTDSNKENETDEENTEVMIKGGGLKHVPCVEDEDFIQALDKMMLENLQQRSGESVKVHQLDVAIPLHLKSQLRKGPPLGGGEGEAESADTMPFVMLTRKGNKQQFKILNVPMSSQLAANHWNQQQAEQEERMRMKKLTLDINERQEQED
Chain of UPF2-U1BD (Q9HAU5 1105-1227): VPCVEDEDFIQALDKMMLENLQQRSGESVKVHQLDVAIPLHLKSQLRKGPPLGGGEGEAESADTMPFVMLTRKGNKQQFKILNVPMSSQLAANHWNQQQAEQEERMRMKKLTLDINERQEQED

For orientation: Kd means the concentration at which binding is half-saturated. High values mean weaker binding, low ones tighter binding. UUUUUUUUUUUU (ssRNA) [U12 RNA]: the Kd with UPF2S [1] is around 600 nM. Also, in the data set with UPF2-U1BD, the binding result is listed as “no binding”. As for UUUUUUUUUUUUUUU (ssRNA) [U15 RNA], in the data set with UPF2S [2], the binding result was “no binding”.
